Measured values: US20190330360A1 (IGM BIOSCIENCES, published 2019)

T1: GITR on activated human T cells (human, UniProt Q9Y5U5 26-241)
T1 construct: also called GITR on CD4 T cells
T1 sequence: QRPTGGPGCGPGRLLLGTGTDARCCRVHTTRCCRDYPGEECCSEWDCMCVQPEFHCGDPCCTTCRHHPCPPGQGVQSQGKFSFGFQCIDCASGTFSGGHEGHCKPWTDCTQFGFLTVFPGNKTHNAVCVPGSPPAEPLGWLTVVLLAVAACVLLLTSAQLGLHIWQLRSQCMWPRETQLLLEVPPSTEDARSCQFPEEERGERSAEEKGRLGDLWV


Target: T1, GITR on activated human T cells
Experiment: flow cytometry, binding dose response on activated human T cells
Method: To assess the ability of IgG and IgM antibodies to bind GITR on activated T cells, a binding assay was performed by the following method. Tissue culture plates were coated with 5 μg/mL of anti-CD3 (eBioscience #16-0037-85) at 4° C. overnight, then washed 2 times with PBS. Purified human CD3 T cells (Astarte Biologics) were seeded at 0.1×10⁶ cells/well and incubated with 2 μg/mL of soluble anti-CD28 (Invitrogen #16-0289-85) for 4 days at 37° C. Cells were washed with FACS Stain Buffer (BD Pharmigen Catalog #554656) and 1×10⁵ cells were stained with serial dilutions of anti-GITR antibodies, 5 μg/mL IgG isotype control (Jackson ImmunoResearch #009-000-003), or 5 μg/mL IgM isotype control (Jackson ImmunoResearch #009-000-012) for 30 minutes at 4° C. Cells were washed twice, then stained for 30 minutes at 4° C. with 5 μg/mL anti-human kappa-AF488 secondary antibody (Biolegend #316512), and anti-human CD4-APC (BD Biosciences #555349) and anti-human CD25-PerCP (Biolegend #356111) for immunophenotyping. Cells were washed twice, resuspended in FACS Stain Buffer, and acquired by flow cytometry. The results are shown in FIG. 3A (Anti-GITR IgG and IgM #1) and FIG. 3B (Anti-GITR IgG and IgM #2). Filled histograms, Isotype controls; Open histograms, Anti-GITR antibodies. All the constructs bound to the activated T cells.

Row | Binder | binding result
1 | Anti-GITR IgG #1 (antibody, V domains shown, VH and VL put into IgG format; Detected with anti-human kappa; also called Anti-GITR #1 IgG; Anti-GITR #1 (IgG format)) VH: QVQLVESGGGVVQPGRSLRLSCAASGFTFSSYGMHWVRQAPGKGLEWMAVIWYVGSNKYYADSVKGRFTISRDNSKNTLYLQMNSLRAEDTAVYYCARGGELGRDYYSGMDVWGQGTTVTVSS VL: DIQMTQSPSSLSASVGDRVTITCRASQGIRNDLGWYQQKPGKAPKRLIYAASSLQSGVPSRFSGSGSGTEFTLTISSLQPEDFATYYCQQHNSYPWTFGQGTKVEIKR | binds
2 | Anti-GITR IgG #2 (antibody, V domains shown, VH and VL put into IgG format; Detected with anti-human kappa; also called Anti-GITR #2 IgG; Anti-GITR #2 (IgG format)) VH: QVQLVESGGGVVQPGRSLRLSCAASGFTFSSYGMHWVRQAPGKGLEWVAVIWYEGSNKYYADSVKGRFTISRDNSKNTLYLQMNSLRAEDTAVYYCARGGSMVRGDYYYGMDVWGQGTTVTVSS VL: AIQLTQSPSSLSASVGDRVTITCRASQGISSALAWYQQKPGKAPKLLIYDASSLESGVPSRFSGSGSGTDFTLTISSLQPEDFATYYCQQFNSYPYTFGQGTKLEIK | binds
